In patent US20260125454A1 (SHANGHAI JUNSHI BIOSCIENCES, published 2026):
Positions count from the first letter of the chain named.

T1: Biotin-huCGRPaSA (human, not fully specified; biotin (position not given))
T1 construct: exact construct ('aSA') not explained; also called Biotin CGRPaSA; full-length (1-37) CGRP
T1 peptide: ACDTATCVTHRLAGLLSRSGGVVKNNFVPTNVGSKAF

B1: hu37 (antibody, V domains shown)
VH: QVQLVQSGAEVKKPGASVKVSCKASGYTFIDFNMHWVRQAPGQRLEWMGYIYPYNGDVVYNQNFTNRVTLTVDTSSSTAYMELSSLRSEDTAVYYCAREGLGGYWGQGTLVTVSS
VL: DIVLTQSPDSLAVSLGERATINCKASQNIDYDGYTYLNWYQQKPGQPPKVLIYSIFNLESGVPDRFSGSGSGTDFTLTISSLQAEDVAVYYCQQSNEVPYTFGQGTKLEIK
notes: 1F5 HC-1/3E5 LC-1
B2: hu63 (antibody, V domains shown)
VH: B1 VH with I30T, R44G, S84R, E89D
VL: B1 VL
notes: 1F5 HC-3/3E5 LC-1
B3: hu50 (antibody, V domains shown)
VH: B1 VH with I30T
VL: B1 VL
notes: 1F5 HC-2/3E5 LC-1
B4: hu64 (antibody, V domains shown)
VH: B1 VH with I30T, R44G, S84R, E89D
VL: B1 VL with D32G, T35S, L37M, I55V, V98A
notes: 1F5 HC-3/3H10 LC2-1
B5: hu190 (antibody, V domains shown)
VH: QVQLVQSGAEVKKPGASVKVSCKTSGYTFTDYNMHWVRQAPGQRLEWMGYISPYNAGTAYNQKFKFRVTLTVDTSSSTAYMELSSLRSEDTAVYYCAREGLGGYWGQGTLVTVSS
VL: B1 VL with Y31F, T35A, L37M, Q42H, I55V, N96H
notes: 3E5 HC-4/1F5 LC1-4
B6: hu181 (antibody, V domains shown)
VH: B5 VH with T24A, R44G, A56G, S85R, E89D, A92V
VL: B1 VL with D32G, T35S, L37M, I55V, V98A
notes: 3E5 HC-3/3H10 LC2-1
B7: hu156 (antibody, V domains shown)
VH: B5 VH with A56G
VL: DIQLTQSPSSLSASVGDRVTITCKASQNIDYGGYSYMNWYQQKPGKAPKVLIYSVFNLESGVPSRFSGSGSGTDFTLTISSLQPEDFATYYCQQSNEAPYTFGQGTKLEIK
notes: 3E5 HC-1/3H10 LC2-2
B8: hu164 (antibody, V domains shown)
VH: B5 VH with T24A, A56G
VL: B1 VL with Y31F, T35A, L37M, Q42H, I55V, N96H
notes: 3E5 HC-2/1F5 LC1-4
B9: hu155 (antibody, V domains shown)
VH: B5 VH with A56G
VL: B1 VL with D32G, T35S, L37M, I55V, V98A
notes: 3E5 HC-1/3H10 LC2-1
B10: hu177 (antibody, V domains shown)
VH: B5 VH with T24A, R44G, A56G, S85R, E89D, A92V
VL: B1 VL with Y31F, T35A, L37M, Q42H, I55V, N96H
notes: 3E5 HC-3/1F5 LC1-4
B11: hu169 (antibody, V domains shown)
VH: B5 VH with T24A, A56G
VL: B7 VL
notes: 3E5 HC-2/3H10 LC2-2
B12: hu99 (antibody, V domains shown)
VH: B5 VH with T24A, I51V, S52Y, A56G, T58S, F66S
VL: B1 VL with Y31F, T35A, L37M, Q42H, I55V, N96H
notes: 2A2 HC-1/1F5 LC1-4
B13: hu146 (antibody, V domains shown)
VH: B5 VH with A56G
VL: EIVLTQSPATLSLSPGERATLSCKASQNIDYDGYAYLNWYQQKPGQAPRVLIYSVFNLESGIPARFSGSGSGTDFTLTISSLEPEDFAVYYCQQSNEFPYTFGQGTKLEIK
notes: 3E5 HC-1/1A2 LC2-3
B14: hu103 (antibody, V domains shown)
VH: B5 VH with T24A, I51V, S52Y, A56G, T58S, F66S
VL: B1 VL with D32G, T35S, L37M, I55V, V98A
notes: 2A2 HC-1/3H10 LC2-1
B15: hu168 (antibody, V domains shown)
VH: B5 VH with T24A, A56G
VL: B1 VL with D32G, T35S, L37M, I55V, V98A
notes: 3E5 HC-2/3H10 LC2-1
B16: hu104 (antibody, V domains shown)
VH: B5 VH with T24A, I51V, S52Y, A56G, T58S, F66S
VL: B7 VL
notes: 2A2 HC-1/3H10 LC2-2
B17: hu194 (antibody, V domains shown)
VH: B5 VH
VL: B1 VL with D32G, T35S, L37M, I55V, V98A
notes: 3E5 HC-4/3H10 LC2-1
B18: hu98 (antibody, V domains shown)
VH: B5 VH with T24A, I51V, S52Y, A56G, T58S, F66S
VL: DIVLTQSPASLAVSPGQRATITCKASQNIDFDGYAYMNWYQQKPGQPPKVLIYSVFNLESGVPARFSGSGSGTDFTLTINPVEADDTANYYCQQSHEVPYTFGQGTKLEIK
notes: 2A2 HC-1/1F5 LC1-3
B19: hu150 (antibody, V domains shown)
VH: B5 VH with A56G
VL: B18 VL
notes: 3E5 HC-1/1F5 LC1-3
B20: hu182 (antibody, V domains shown)
VH: B5 VH with T24A, R44G, A56G, S85R, E89D, A92V
VL: B7 VL
notes: 3E5 HC-3/3H10 LC2-2
B21: hu185 (antibody, V domains shown)
VH: B5 VH
VL: B13 VL
notes: 3E5 HC-4/1A2 LC2-3
B22: hu195 (antibody, V domains shown)
VH: B5 VH
VL: B7 VL
notes: 3E5 HC-4/3H10 LC2-2
B23: hu189 (antibody, V domains shown)
VH: B5 VH
VL: B18 VL
notes: 3E5 HC-4/1F5 LC1-3

Target: CGRP antigen
Test: cell-based or functional assay

| Binder | IC50 [µg/mL] | relative activity (%) vs Ref(TEVA) [%] |
| --- | --- | --- |
| B1 | 0.0784 | 46 |
| B2 | 0.05 | 62 |
| B3 | 0.0668 | 46 |
| B4 | 0.0699 | 44 |

Target: T1, Biotin-huCGRPaSA
Test: ELISA, supernatant; relative to chimeric C245
Method in brief: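 Plates coated with biotin-CGRPaSA at 1.0 μg/mL (90 min, 37°C) and blocked with 2% BSA. Humanized antibodies and chimeric C245 reference, 2.5-fold serial dilutions from 1000 ng/mL, bound 60 min at 37°C. Detection by HRP anti-human IgG (Fc), TMB 15 min, read at 450/620 nm.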

| Binder | Relative binding activity, % [%] |
| --- | --- |
| B1 | 142 |
| B5 | 34 |
| B6 | 67 |
| B7 | 32 |
| B8 | 56 |
| B9 | 74 |
| B10 | 25 |
| B11 | 16 |
| B12 | 74 |
| B13 | 107 |
| B14 | 88 |
| B15 | 68 |
| B16 | 45 |
| B17 | 98 |
| B18 | 76 |
| B19 | 64 |
| B2 | 122 |
| B3 | 132 |
| B4 | 116 |
| B20 | 31 |
| B21 | 19 |
| B22 | 23 |
| B23 | 73 |
